Target: IgE of dust mite allergic patient Donor 11 (serum IgE; IgE on the donor's basophils in the histamine release …)
Assay: cell-based or functional assay

B1: Der p 1 variant DP060 (S54N, Q68F) (other)
chain: TNACSINGNAPAEIDLRQMRTVTPIRMQGGCGSCWAFSGVAATESAYLAYRNQNLDLAEQELVDCASFHGCHGDTIPRGIEYIQHNGVVQESYYRYVAREQSCRRPNAQRFGISNYCQIYPPNVNKIREALAQTHSAIAVIIGIKDLDAFRHYDGRTIIQRDNGYQPNYHAVNIVGYSNAQGVDYWIVRNSWDTNWGDNGYGYFAANIDLMMIEEYPYVVIL
potency to induce histamine release in human basophil assay, relative to nDer p 1: 20 fold
